# Measurements: paper PMC8384158
# B1: TAP–Bag-1S [human] / Calnexin [human (endogenous in MCF-7 and MCF-12A)] (parent)
# chain 1: MNRSQEVTRDEESTRSEEVTREEMAAAGLTVTVTHSNEKHDLHVTSQQGSSEPVVQDLAQVVEEVIGVPQSFQKLIFKGKSLKEMETPLSALGIQDGCRVMLIGKKNSPQEEVELKKLKHLEKSVEKIADQLEELNKELTGIQQGFLPKDLQAEALCKLDRRVKATIEQFMKILEEIDTLILPENFKDSRLKRKGLVKKVQAFLAECDTVEQNICQETERLQSTNFALAE
# chain 2: HDGHDDDVIDIEDDLDDVIEEVEDSKPDTTAPPSSPKVTYKAPVPTGEVYFADSFDRGTLSGWILSKAKKDDTDDEIAKYDGKWEVEEMKESKLPGDKGLVLMSRAKHHAISAKLNKPFLFDTKPLIVQYEVNFQNGIECGGAYVKLLSKTPELNLDQFHDKTPYTIMFGPDKCGEDYKLHFIFRHKNPKTGIYEEKHAKRPDADLKTYFTDKKTHLYTLILNPDNSFEILVDQSVVNSGNLLNDMTPPVNPSREIEDPEDRKPEDWDERPKIPDPEAVKPDDWDEDAPAKIPDEEATKPEGWLDDEPEYVPDPDAEKPEDWDEDMDGEWEAPQIANPRCESAPGCGVWQRPVIDNPNYKGKWKPPMIDNPSYQGIWKPRKIPNPDFFEDLEPFRMTPFSAIGLELWSMTSDIFFDNFIICADRRIVDDWANDGWGLKKAADGAAEPGVVGQMIEAAEERPWLWVVYILTVALPVFLVILFCCSGKKQTSGMEYKKTDAPQPDVKEEEEEKEEEKDKGDEEEEGEEKLEEKQKSDAEEDGGTVSQEEEDRKPKAEEDEILNRSPRNRKPRRE
# B2: TAP–Bag-1S [human] / PDIA3 [human (endogenous in MCF-7 and MCF-12A)] (parent)
# chain 1: B1 chain 1
# chain 2: SDVLELTDDNFESRISDTGSAGLMLVEFFAPWCGHCKRLAPEYEAAATRLKGIVPLAKVDCTANTNTCNKYGVSGYPTLKIFRDGEEAGAYDGPRTADGIVSHLKKQAGPASVPLRTEEEFKKFISDKDASIVGFFDDSFSEAHSEFLKAASNLRDNYRFAHTNVESLVNEYDDNGEGIILFRPSHLTNKFEDKTVAYTEQKMTSGKIKKFIQENIFGICPHMTEDNKDLIQGKDLLIAYYDVDYEKNAKGSNYWRNRVMMVAKKFLDAGHKLNFAVASRKTFSHELSDFGLESTAGEIPVVAIRTAKGEKFVMQEEFSRDGKALERFLQDYFDGNLKRYLKSEPIPESNDGPVKVVVAENFDEIVNNENKDVLIEFYAPWCGHCKNLEPKYKELGEKLSKDPNIVIAKMDATANDVPSPYEVRGFPTIYFSPANKKLNPKKYEGGRELSDFISYLQREATNPPVIQEEKPKKKKKAQEDL
# Variants of: B1
# Test: TAP pull-down interactome analysis (LC-MS/MS)
# Settings: with Calnexin [human (endogenous in MCF-7 and MCF-12A)]; MCF-7 cells; read off a plot
row,screen value,Variant
1,-1.1 log2,chain 1 R162E
2,-1.1 log2,chain 1 I103K
3,-1.6 log2,chain 1 R161D
4,-0.55 log2,chain 1 R193D

# Variants of: B2
# Test: TAP pull-down interactome analysis (LC-MS/MS)
# Settings: with PDIA3 [human (endogenous in MCF-7 and MCF-12A)]; MCF-7 cells; read off a plot
row,screen value,Variant
1,-0.07 log2,chain 1 I103K
2,-1.5 log2,chain 1 R161D
3,-0.62 log2,chain 1 R162E
4,-0.1 log2,chain 1 R193D
